According to IntAct's records for PubMed 29039417:

B1: BBSome complex member BBS2 (Homo sapiens), Q9BXC9 (parent)
chain: MLLPVFTLKLRHKISPRMVAIGRYDGTHPCLAAATQTGKVFIHNPHTRNQHVSASRVFQSPLESDVSLLSINQAVSCLTAGVLNPELGYDALLVGTQTNLLAYDVYNNSDLFYREVADGANAIVLGTLGDISSPLAIIGGNCALQGFNHEGSDLFWTVTGDNVNSLALCDFDGDGKKELLVGSEDFDIRVFKEDEIVAEMTETEIVTSLCPMYGSRFGYALSNGTVGVYDKTSRYWRIKSKNHAMSIHAFDLNSDGVNELITGWSNGKVDARSDRTGEVIFKDNFSSAIAGVVEGDYRMDGHIQLICCSVDGEIRGYLPGTAEMRGNLMDTSAEQDLIRELSQKKQNLLLELRNYEENAKAELASPLNEADGHRGIIPANTRLHTTLSVSLGNETQTAHTELRISTSNDTIIRAVLIFAEGIFTGESHVVHPSIHNLSSSICIPIVPPKDVPVDLHLKAFVGYRSSTQFHVFESTRQLPRFSMYALTSLDPASEPISYVNFTIAERAQRVVVWLGQNFLLPEDTHIQNAPFQVCFTSLRNGGHLHIKIKLSGEITINTDDIDLAGDIIQSMASFFAIEDLQVEADFPVYFEELRKVLVKVDEYHSVHQKLSADMADHSNLIRSLLVGAEDARLMRDMKTMKSRYMELYDLNRDLLNGYKIRCNNHTELLGNLKAVNQAIQRAGRLRVGKPKNQVITACRDAIRSNNINTLFKIMRVGTASS
partner: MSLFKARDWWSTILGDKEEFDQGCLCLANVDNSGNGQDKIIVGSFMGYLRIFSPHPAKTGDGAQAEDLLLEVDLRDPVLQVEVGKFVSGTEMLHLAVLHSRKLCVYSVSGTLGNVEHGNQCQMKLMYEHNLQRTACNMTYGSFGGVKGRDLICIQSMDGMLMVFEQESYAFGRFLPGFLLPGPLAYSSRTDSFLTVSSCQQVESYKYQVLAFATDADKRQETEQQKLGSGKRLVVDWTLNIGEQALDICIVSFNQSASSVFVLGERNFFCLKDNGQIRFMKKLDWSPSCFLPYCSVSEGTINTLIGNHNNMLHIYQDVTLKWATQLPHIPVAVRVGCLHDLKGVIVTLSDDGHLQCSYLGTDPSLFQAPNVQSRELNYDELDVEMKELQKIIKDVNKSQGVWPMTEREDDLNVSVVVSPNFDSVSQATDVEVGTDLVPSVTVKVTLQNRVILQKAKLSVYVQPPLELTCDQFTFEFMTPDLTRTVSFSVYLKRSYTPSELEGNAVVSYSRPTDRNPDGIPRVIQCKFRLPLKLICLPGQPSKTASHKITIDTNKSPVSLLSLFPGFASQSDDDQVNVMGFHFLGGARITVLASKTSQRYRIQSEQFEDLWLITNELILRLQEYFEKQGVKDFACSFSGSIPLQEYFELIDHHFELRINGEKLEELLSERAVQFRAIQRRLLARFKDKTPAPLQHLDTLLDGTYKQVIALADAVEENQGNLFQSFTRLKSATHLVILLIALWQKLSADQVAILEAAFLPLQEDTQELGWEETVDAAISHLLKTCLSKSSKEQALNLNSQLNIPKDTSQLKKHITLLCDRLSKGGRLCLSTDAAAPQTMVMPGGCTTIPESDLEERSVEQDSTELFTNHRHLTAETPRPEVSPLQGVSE

Variants of: B1
Conditions: with pthb1_human BBS9, Q3SYG4

Variant | effect of a mutation on the interaction
N557A | with no effect
H545K | with no effect
H545A | with no effect
H545E | with no effect
A529E | with no effect
A529K | with no effect
I568A | with no effect
I568K | with no effect
H543K | with no effect
H543A | with no effect
H543E | with no effect
S537K | with no effect
S537F | disrupting interaction strength
S537A | with no effect
S537E | with no effect
P530A | with no effect
P530K | with no effect
P530E | with no effect
I526K | with no effect
T536E | with no effect
T536K | with no effect
T536A | with no effect
A576K | with no effect

Variant | effect of a mutation on the interaction
A576E | with no effect
Q532A | with no effect
Q532K | with no effect
Q532E | with no effect
F574E | with no effect
F574A | with no effect
F574K | with no effect
F575A | with no effect
F575K | with no effect
F575E | with no effect
S551K | with no effect
S551A | with no effect
S551E | with no effect
I554G | disrupting interaction strength
I554K | with no effect
I554A | with no effect
I554E | with no effect
N528K | with no effect
N528E | with no effect
N528A | with no effect
D559K | with no effect
D559E | with no effect
D559A | with no effect

Variant | effect of a mutation on the interaction
F531E | with no effect
F531K | with no effect
F531A | with no effect
M571A | with no effect
M571E | with no effect
M571K | with no effect
T558K | with no effect
T558E | with no effect
T558A | with no effect
G542K | with no effect
G542E | with no effect
G542A | with no effect
T555A | with no effect
T555P | disrupting interaction strength
T555H | disrupting interaction strength
T555K | with no effect
T555E | with no effect
D560E | with no effect
D560A | disrupting interaction strength
D560K | with no effect
I561K | with no effect
I561A | with no effect
I561E | with no effect

Variant | effect of a mutation on the interaction
I561F | disrupting interaction strength
A572K | with no effect
A572E | with no effect
L538E | with no effect
L538K | with no effect
L538A | with no effect
S573K | with no effect
S573E | with no effect
S573A | with no effect
C534E | with no effect
C534A | with no effect
C534K | with no effect
Q527K | with no effect
Q527A | with no effect
Q527E | with no effect
E553K | with no effect
E553A | with no effect
Q581E | with no effect
Q581K | with no effect
Q581A | with no effect
